This is an account of results in PMC11277218.

Assay [1] concerns the target HPV16 pseudovirions (HPV16-PsVs) (human papillomavirus type 16) (UniProt P03101).
The target is the same in assay [2]. The source holds these as a separate data set.
The target is the same in assay [3]. This is another data set of the same source.

UniProt P03101, sequence (P03101 whole entry, chain 1 of 2): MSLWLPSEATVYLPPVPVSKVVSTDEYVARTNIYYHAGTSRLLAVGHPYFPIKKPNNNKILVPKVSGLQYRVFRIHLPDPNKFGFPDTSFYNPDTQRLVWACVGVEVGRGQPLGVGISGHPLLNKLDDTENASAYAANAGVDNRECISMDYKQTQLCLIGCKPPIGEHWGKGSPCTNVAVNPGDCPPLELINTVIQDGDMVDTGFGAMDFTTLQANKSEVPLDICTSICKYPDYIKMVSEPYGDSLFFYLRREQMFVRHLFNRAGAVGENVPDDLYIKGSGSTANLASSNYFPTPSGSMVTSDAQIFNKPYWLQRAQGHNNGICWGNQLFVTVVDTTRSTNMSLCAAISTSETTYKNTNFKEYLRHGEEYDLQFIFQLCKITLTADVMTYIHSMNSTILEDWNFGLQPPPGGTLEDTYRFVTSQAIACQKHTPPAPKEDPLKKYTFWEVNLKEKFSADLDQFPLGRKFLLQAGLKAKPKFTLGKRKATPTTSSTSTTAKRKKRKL
UniProt P03101, sequence (P03107 whole entry, chain 2 of 2, further chain): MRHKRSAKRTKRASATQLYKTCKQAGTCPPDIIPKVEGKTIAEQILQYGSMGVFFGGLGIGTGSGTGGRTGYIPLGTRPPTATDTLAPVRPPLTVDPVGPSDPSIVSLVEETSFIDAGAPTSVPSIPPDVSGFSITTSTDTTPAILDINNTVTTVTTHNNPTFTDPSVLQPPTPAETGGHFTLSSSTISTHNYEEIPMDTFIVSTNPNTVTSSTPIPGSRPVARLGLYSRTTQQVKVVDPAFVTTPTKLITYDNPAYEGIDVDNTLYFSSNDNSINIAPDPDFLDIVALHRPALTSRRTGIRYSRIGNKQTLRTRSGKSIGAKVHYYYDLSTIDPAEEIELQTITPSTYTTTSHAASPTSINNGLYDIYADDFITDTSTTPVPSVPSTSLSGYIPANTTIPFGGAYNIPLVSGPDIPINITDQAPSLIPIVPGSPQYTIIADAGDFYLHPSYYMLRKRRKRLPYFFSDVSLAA

Consider “native human surfactant protein A (SP-A) (from UniProt Q8IWL2 21-248) (natural protein)”, for which the uptake of SP-A-preincubated AF488-PsVs into HaCaT keratinocytes, positive cells by flow cytometry, against the BSA control (fold decrease) in assay [1] is 2. In addition, in assay [2], the uptake of SP-A-preincubated AF488-PsVs into RAW264.7 macrophages, MFI by flow cytometry, fold of the BSA control turned out to be 1.75 fold; the uptake of SP-A-preincubated AF488-PsVs into RAW264.7 macrophages, positive cells by flow cytometry, fold of the BSA control is 2 fold; the uptake of SP-A-preincubated AF488-PsVs into THP-1-derived immature dendritic cells (DC0), positive cells by flow cytometry, fold of the BSA control is 2 fold; the uptake of SP-A-preincubated AF488-PsVs into THP-1 monocytes, MFI by flow cytometry, fold of the BSA control turned out to be 1.3 fold. The infection of HaCaT monocultures by SP-A-preincubated PsVs, Gaussia luciferase at 48 h, against the BSA control in assay [3] amounted to 40 % reduction.
